This note sets out measurements from publication PMC10658926, “Plasmodium vivax merozoite-specific thrombospondin-related anonymous protein (PvMTRAP) interacts with human CD36, suggesting a novel ligand–receptor interaction for reticulocyte invasion” (Parasites & Vectors, 2023).

For assay [1], the target named is human CD36 (cluster of differentiation 36), ectodomain, Fc-fusion (human). The assay can be described thus: BLI; Octet RED96; Fc-tagged receptor immobilised on protein G (ProG) biosensor, twofold serial dilution of His-tagged parasite ligand in HBS; KD from the response in equilibrium against concentration. For orientation: In BLI a coated tip is dipped into the sample, and binding shifts an interference pattern.

Assay [2] concerns the target T1, Plasmodium vivax Duffy binding protein region II (PvDBP-RII), residues 194 to 521, His-tagged (Plasmodium vivax, UniProt P22290 194-521, biotin (biotinylated with co-transfected secreted E. coli BirA and D-biotin, for the ELISA bait)).
T1 construct: source: HEK293E, transfected, culture supernatant, purified (Ni-NTA agarose); not shown: His, C-terminal, kept
The description is as above. Particulars: both partners purified.

For the molecule “Plasmodium vivax merozoite-specific thrombospondin-related anonymous protein (PvMTRAP), full-length ectodomain, His-tagged (domain or fragment)”, the dissociation constant Kd in assay [1] is 37 nM.

B1: Duffy antigen receptor for chemokines (DARC, CD234), residues 1 to 63, Fc-fusion (Fc fusion, human, UniProt Q16570 1-63, looked up)
chain: MGNCLHRAELSPSTENSSQLDFEDVWNSSYGVNDSFPDGDYGANLEAAAPCHSCNLLDDSALP
notes: Duffy antigen receptor for chemokines (CD234), human, residues 1 to 63; also called human DARC; source: HEK293E, transfected, culture supernatant, purified (HiTrap Protein G HP); not shown: Fc, C-terminal, kept
In turn, B1 yielded a Kd in assay [2] of 7.7 nM.

As usually defined, the Kd is the concentration at which binding is half-saturated. Low readings indicate higher affinity, high ones lower affinity.
